According to the supplement of paper PMC5998384:

What was measured:
[1] = system: HeLa Kyoto; assay: solubility in G1/S (NP-40 vs SDS abundance) (log2 ratio); higher = more soluble; details: cell cycle stage: G1/S
[2] = system: HeLa Kyoto; assay: thermal stability score vs G1/S (z-score of summed log2 fold changes over temperatures); higher = more thermally stable than in G1/S
[3] = system: HeLa Kyoto; assay: solubility change mitosis vs G1/S (difference of NP-40 vs SDS log2 ratios) (log2 ratio difference); higher = more soluble in mitosis
[4] = system: HeLa Kyoto; assay: melting temperature (median over replicates), in situ; higher = more thermally stable
[5] = cell cycle stage: early G1 (4.5 h after nocodazole release)
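Wherever melting temperature (median over replicates), in situ is given: HeLa Kyoto cells synchronized by double thymidine or nocodazole block, proteins quantified by TMT10plex mass spectrometry, three independent biological replicates.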
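Wherever solubility change mitosis vs G1/S (difference of NP-40 vs SDS log2 ratios) is given: synchronized HeLa Kyoto cells (double thymidine block for G1/S, nocodazole release for mitosis), protein amounts in NP-40 versus SDS lysates quantified by mass spectrometry, three biological replicates.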
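Wherever solubility in G1/S (NP-40 vs SDS abundance) is given: HeLa Kyoto cells arrested at G1/S by double thymidine block, proteins quantified by TMT10plex mass spectrometry in mild NP-40 versus SDS extracts, three biological replicates.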
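Wherever thermal stability score vs G1/S (z-score of summed log2 fold changes over temperatures) is given: synchronized HeLa Kyoto cells, proteins quantified by TMT10plex mass spectrometry, three biological replicates, mitosis taken 0.5 h after nocodazole release, G1/S directly after double thymidine block.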

Sequence | solubility in G1/S (log2) [1] | thermal stability score [2, 5] | thermal stability score ([2]; cell cycle stage: mitosis) | solubility change mitosis (log2) [3] | melting temperature ([4]; cell cycle stage: G1/S) [°C] | melting temperature ([4]; cell cycle stage: mitosis) [°C]
MASLEVSRSPRRSRRELEVRSPRQNKYSVLLPTYNERENLPLIVWLLVKSFSESGINYEIIIIDDGSPDGTRDVAEQLEKIYGSDRILLRPREKKLGLGTAYIHGMKHATGNYIIIMDADLSHHPKFIPEFIRKQKEGNFDIVSGTRYKGNGGVYGWDLKRKIISRGANFLTQILLRPGASDLTGSFRLYRKEVLEKLIEKCVSKGYVFQMEMIVRARQLNYTIGEVPISFVDRVYGESKLGGNEIVSFLKGLLTLFATT [DPM1] | -0.0525 | -2.69 | 1.91 | 0.0355 | 53.2 | 52.7
MASNVTNKTDPRSMNSRVFIGNLNTLVVKKSDVEAIFSKYGKIVGCSVHKGFAFVQYVNERNARAAVAGEDGRMIAGQVLDINLAAEPKVNRGKAGVKRSAAEMYGSVTEHPSPSPLLSSSFDLDYDFQRDYYDRMYSYPARVPPPPPIARAVVPSKRQRVSGNTSRRGKSGFNSKSGQRGSSKSGKLKGDDLQAIKKELTQIKQKVDSLLENLEKIEKEQSKQAVEMKNDKSEEEQSSSSVKKDETNVKMESEGGADDSAEEGDLLDDDDNEDRGDDQLELIKDDEKEAEEGEDDRDSANGEDDS [HNRNPC] | -0.0638 | 7.33 | 16.5 | 0.36 | 47.4 | 49.5
MASPPHQQLLHHHSTEVSCDSSGDSNSVRVKINPKQLSSNSHPKHCKYSISSSCSSSGDSGGVPRRVGGGGRLRRQKKLPQLFERASSRWWDPKFDSVNLEEACLERCFPQTQRRFRYALFYIGFACLLWSIYFAVHMRSRLIVMVAPALCFLLVCVGFFLFTFTKLYARHYAWTSLALTLLVFALTLAAQFQVLTPVSGRGDSSNLTATARPTDTCLSQVGSFSMCIEVLFLLYTVMHLPLYLSLCLGVAYSVLFETFGYHFRDEACFPSPGAGALHWELLSRGLLHGCIHAIGVHLFVMSQVRSRSTFLKVGQSIMHGKDLEVEKALKERMIHSVMPRIIADDLMKQGDEESENSVKRHATSSPKNRKKKSSIQKAPIAFRPFKMQQIEEVSILFADIVGFTKMSANKSAHALVGLLNDLFGRFDRLCEETKCEKISTLGDCYYCVAGCPEPRADHAYCCIEMGLGMIKAIEQFCQEKKEMVNMRVGVHTGTVLCGILGMRRFKFDVWSNDVNLANLMEQLGVAGKVHISEATAKYLDDRYEMEDGKVIERLGQSVVADQLKGLKTYLISGQRAKESRCSCAEALLSGFEVIDGSQVSSGPRGQGTASSGNVSDLAQTVKTFDNLKTCPSCGITFAPKSEAGAEGGAPQNGCQDEHKNSTKASGGPNPKTQNGLLSPPQEEKLTNSQTSLCEILQEKGRWAGVSLDQSALLPLRFKNIREKTDAHFVDVIKEDSLMKDYFFKPPINQFSLNFLDQELERSYRTSYQEEVIKNSPVKTFASPTFSSLLDVFLSTTVFLTLSTTCFLKYEAATVPPPPAALAVFSAALLLEVLSLAVSIRMVFFLEDVMACTKRLLEWIAGWLPRHCIGAILVSLPALAVYSHVTSEYETNIHFPVFTGSAALIAVVHYCNFCQLSSWMRSSLATVVGAGPLLLLYVSLCPDSSVLTSPLDAVQNFSSERNPCNSSVPRDLRRPASLIGQEVVLVFFLLLLLVWFLNREFEVSYRLHYHGDVEADLHRTKIQSMRDQADWLLRNIIPYHVAEQLKVSQTYSKNHDSGGVIFASIVNFSEFYEENYEGGKECYRVLNELIGDFDELLSKPDYSSIEKIKTIGATYMAASGLNTAQAQDGSHPQEHLQILFEFAKEMMRVVDDFNNNMLWFNFKLRVGFNHGPLTAGVIGTTKLLYDIWGDTVNIASRMDTTGVECRIQVSEESYRVLSKMGYDFDYRGTVNVKGKGQMKTYLYPKCTDHRVIPQHQLSISPDIRVQVDGSIGRSPTDEIANLVPSVQYVDKTSLGSDSSTQAKDAHLSPKRPWKEPVKAEERGRFGKAIEKDDCDETGIEEANELTKLNVSKSV [ADCY9] | -0.0462 | 0.368 | -0.65 | -0.172 | 52.3 | 52
MASRGATRPNGPNTGNKICQFKLVLLGESAVGKSSLVLRFVKGQFHEFQESTIGAAFLTQTVCLDDTTVKFEIWDTAGQERYHSLAPMYYRGAQAAIVVYDITNEESFARAKNWVKELQRQASPNIVIALSGNKADLANKRAVDFQEAQSYADDNSLLFMETSAKTSMNVNEIFMAIAKKLPKNEPQNPGANSARGRGVDLTEPTQPTRNQCCSN [RAB5A] | 0.00572 | -1.4 | -3.38 | 0.0351 | 57.3 | 56.4
MASSAEGDEGTVVALAGVLQSGFQELSLNKLATSLGASEQALRLIISIFLGYPFALFYRHYLFYKETYLIHLFHTFTGLSIAYFNFGNQLYHSLLCIVLQFLILRLMGRTITAVLTTFCFQMAYLLAGYYYTATGNYDIKWTMPHCVLTLKLIGLAVDYFDGGKDQNSLSSEQQKYAIRGVPSLLEVAGFSYFYGAFLVGPQFSMNHYMKLVQGELIDIPGKIPNSIIPALKRLSLGLFYLVGYTLLSPHITEDYLLTEDYDNHPFWFRCMYMLIWGKFVLYKYVTCWLVTEGVCILTGLGFNGFEEKGKAKWDACANMKVWLFETNPRFTGTIASFNINTNAWVARYIFKRLKFLGNKELSQGLSLLFLALWHGLHSGYLVCFQMEFLIVIVERQAARLIQESPTLSKLAAITVLQPFYYLVQQTIHWLFMGYSMTAFCLFTWDKWLKVYKSIYFLGHIFFLSLLFILPYIHKAMVPRKEKLKKME [LPCAT3] | -0.0534 | 0.0481 | -0.776 | -0.275 | – | 55.7
MASSCAVQVKLELGHRAQVRKKPTVEGFTHDWMVFVRGPEHSNIQHFVEKVVFHLHESFPRPKRVCKDPPYKVEESGYAGFILPIEVYFKNKEEPRKVRFDYDLFLHLEGHPPVNHLRCEKLTFNNPTEDFRRKLLKAGGDPNRSIHTSSSSSSSSSSSSSSSSSSSSSSSSSSSSSSSSSSSSSSSSSSTSFSKPHKLMKEHKEKPSKDSREHKSAFKEPSRDHNKSSKESSKKPKENKPLKEEKIVPKMAFKEPKPMSKEPKPDSNLLTITSGQDKKAPSKRPPISDSEELSAKKRKKSSSEALFKSFSSAPPLILTCSADKKQIKDKSHVKMGKVKIESETSEKKKSTLPPFDDIVDPNDSDVEENISSKSDSEQPSPASSSSSSSSSFTPSQTRQQGPLRSIMKDLHSDDNEEESDEVEDNDNDSEMERPVNRGGSRSRRVSLSDGSDSESSSASSPLHHEPPPPLLKTNNNQILEVKSPIKQSKSDKQIKNGECDKAYLDELVELHRRLMTLRERHILQQIVNLIEETGHFHITNTTFDFDLCSLDKTTVRKLQSYLETSGTS [MLLT3] | -0.355 | -0.0552 | 0.557 | 0.411 | 48.5 | 50.5
MASSDIQVKELEKRASGQAFELILSPRSKESVPEFPLSPPKKKDLSLEEIQKKLEAAEERRKSHEAEVLKQLAEKREHEKEVLQKAIEENNNFSKMAEEKLTHKMEANKENREAQMAAKLERLREKDKHIEEVRKNKESKDPADETEAD [STMN1] | 0.635 | -6.5 | -5.49 | 0.208 | 56.7 | 64.1
MASSSPDSPCSCDCFVSVPPASAIPAVIFAKNSDRPRDEVQEVVFVPAGTHTPGSRLQCTYIEVEQVSKTHAVILSRPSWLWGAEMGANEHGVCIGNEAVWTKEPVGEGEALLGMDLLRLALERSSSAQEALHVITGLLEHYGQGGNCLEDAAPFSYHSTFLLADRTEAWVLETAGRLWAAQRIQEGARNISNQLSIGTDISAQHPELRTHAQAKGWWDGQGAFDFAQIFSLTQQPVRMEAAKARFQAGRELLRQRQGGITAEVMMGILRDKESGICMDSGGFRTTASMVSVLPQDPTQPCVHFLTATPDPSRSVFKPFIFGMGVAQAPQVLSPTFGAQDPVRTLPRFQTQVDRRHTLYRGHQAALGLMERDQDRGQQLQQKQQDLEQEGLEATQGLLAGEWAPPLWELGSLFQAFVKRESQAYA [SCRN2] | 0.282 | 0.593 | 0.947 | -0.201 | 51 | 51.1
MASSSTVPLGFHYETKYVVLSYLGLLSQEKLQEQHLSSPQGVQLDIASQSLDQEILLKVKTEIEEELKSLDKEISEAFTSTGFDRHTSPVFSPANPESSMEDCLAHLGEKVSQELKEPLHKALQMLLSQPVTYQAFRECTLETTVHASGWNKILVPLVLLRQMLLELTRRGQEPLSALLQFGVTYLEDYSAEYIIQQGGWGTVFSLESEEEEYPGITAEDSNDIYILPSDNSGQVSPPESPTVTTSWQSESLPVSLSASQSWHTESLPVSLGPESWQQIAMDPEEVKSLDSNGAGEKSENNSSNSDIVHVEKEEVPEGMEEAAVASVVLPARELQEALPEAPAPLLPHITATSLLGTREPDTEVITVEKSSPATSLFVELDEEEVKAATTEPTEVEEVVPALEPTETLLSEKEINAREESLVEELSPASEKKPVPPSEGKSRLSPAGEMKPMPLSEGKSILLFGGAAAVAILAVAIGVALALRKK [BCL2L13] | 0.337 | -2.28 | -2.76 | -0.255 | 53.9 | 54.1
MASSVGNVADSTEPTKRMLSFQGLAELAHREYQAGDFEAAERHCMQLWRQEPDNTGVLLLLSSIHFQCRRLDRSAHFSTLAIKQNPLLAEAYSNLGNVYKERGQLQEAIEHYRHALRLKPDFIDGYINLAAALVAAGDMEGAVQAYVSALQYNPDLYCVRSDLGNLLKALGRLEEAKACYLKAIETQPNFAVAWSNLGCVFNAQGEIWLAIHHFEKAVTLDPNFLDAYINLGNVLKEARIFDRAVAAYLRALSLSPNHAVVHGNLACVYYEQGLIDLAIDTYRRAIELQPHFPDAYCNLANALKEKGSVAEAEDCYNTALRLCPTHADSLNNLANIKREQGNIEEAVRLYRKALEVFPEFAAAHSNLASVLQQQGKLQEALMHYKEAIRISPTFADAYSNMGNTLKEMQDVQGALQCYTRAIQINPAFADAHSNLASIHKDSGNIPEAIASYRTALKLKPDFPDAYCNLAHCLQIVCDWTDYDERMKKLVSIVADQLEKNRLPSVHPHHSMLYPLSHGFRKAIAERHGNLCLDKINVLHKPPYEHPKDLKLSDGRLRVGYVSSDFGNHPTSHLMQSIPGMHNPDKFEVFCYALSPDDGTNFRVKVMAEANHFIDLSQIPCNGKAADRIHQDGIHILVNMNGYTKGARNELFALRPAPIQAMWLGYPGTSGALFMDYIITDQETSPAEVAEQYSEKLAYMPHTFFIGDHANMFPHLKKKAVIDFKSNGHIYDNRIVLNGIDLKAFLDSLPDVKIVKMKCPDGGDNADSSNTALNMPVIPMNTIAEAVIEMINRGQIQITINGFSISNGLATTQINNKAATGEEVPRTIIVTTRSQYGLPEDAIVYCNFNQLYKIDPSTLQMWANILKRVPNSVLWLLRFPAVGEPNIQQYAQNMGLPQNRIIFSPVAPKEEHVRRGQLADVCLDTPLCNGHTTGMDVLWAGTPMVTMPGETLASRVAASQLTCLGCLELIAKNRQEYEDIAVKLGTDLEYLKKVRGKVWKQRISSPLFNTKQYTMELERLYLQMWEHYAAGNKPDHMIKPVEVTESA [OGT] | 0.302 | -0.271 | 1.57 | -0.0669 | 49.4 | 50.3
